Reference: patent CN102875676A (WUXI PROGRAMMED ARTIFICIAL MOLECULAR EVOLUTION CO LTD, dated 2013)

How the values were obtained:
[1] = target: T1, 重组人VEGF (recombinant human VEGF, VEGF-A) (human, UniProt P15692-4 27-191, limits assumed); assay: Friguet method (solution equilibrium with human VEGF, ELISA of free antibody on immobilised VEGF), Fab
[2] = target: T1, 重组人VEGF (recombinant human VEGF, VEGF-A); assay: Friguet method, full-length antibody

T1 sequence (P15692 other isoform, or with tags, fused parts or gaps limits assumed): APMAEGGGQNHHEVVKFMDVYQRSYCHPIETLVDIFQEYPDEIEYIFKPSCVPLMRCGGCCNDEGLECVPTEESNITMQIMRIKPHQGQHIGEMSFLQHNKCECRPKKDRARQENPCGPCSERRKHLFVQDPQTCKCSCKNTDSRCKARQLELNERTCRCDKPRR

B1: 3D7 Fab (原型分子3D7) (Fab, V domains shown)
VH: EVQLVESGGGLVQPGGSLRLSCAASGFNIKDTYIHWVRQAPGKGLEWVAYIAPSYGYTRYADSVKGRFTISADTSKNTAYLQMNSLRAEDTAVYYCSRSSDASYSYSAWGQGTLVTVSS
VL: DIVMTQSPSSLSASVGDRVTITCRASQFVGFYIHWYQQKPGKAPKLLIYAASERATGVPSRFSGSRSGTDFTLTISSLQPEDFATYYCQQWLNNPFTFGQGTKVEIKR
notes: Tested as a Fab (phage supernatant in the screen); also called 原型抗体3D7
Kd [1]: 1560 pM

B2: 6B2 Fab (候选分子6B2) (Fab, V domains shown)
VH: EVQLVQSGGGVVQPRRSLRLSCAASGFDIYDDDIHWVRQAPGKGLEWVYIAPSYGYTRYADSVKGRFTVSRDNSKNTLYLQMNSLRAEDTSVYYCARSSDASYSYSAMDYWGQGTLVTVSS
VL: DIQMTQSPSSVSASIGDRVTITCRASQDASYSSAWYQQRPGKAPELLIYSAASYESGVPSRFSGSGSGTDFTLTISSLQAEDFATYYCQSSASPATFGQGTRLEIKR
Kd [1]: 276 pM

B3: 全长6B2 (F6B2), full-length antibody (antibody, V domains shown)
VH: B2 VH
VL: B2 VL
notes: expressed in DG44 cells; also called 6B2全长抗体分子
Kd [2]: 22 pM
